# Results as given in the RNAGym collection of RNA variant scans (doi:10.7554/elife.80360).
# B1: HDV Ribozyme (parent)
# chain: GGCCGGCAUGGUCCCAGCCUCCUCGCUGGCGCCGGCUGGGCAACAUUCCGAGGGGACCGUCCCCUCGGUAAUGGCGAAUGGGACCCA
# Variants of: B1
# Assay: self-cleavage, relative activity (ratio to wild type); higher = more cleavage; co-transcriptional
row,Variant,self-cleavage
1,GGCCGGCAUGGUCCCAGCCUCCUCGCUGGCGCCGGCUGGGCAAGAUUCCGAGGGGACCGUCCCCUCGGUCAUGGCGAAUGGGACCCA,0.831
2,GGCCGGCAUGGUCCCAGCCUCCUCGCUGGCGCCGGCUGGGCAAGAUUCCGAGGGGACCGUCCCCUCGGUGAUGGCGAAUGGGACCCA,0.525
3,GGCCGGCAUGGUCCCAGCCUCCUCGCUGGCGCCGGCUGGGCAAGAUUACGAGGGGACCGUCCCCUCGGUAAUGGCGAAUGGGACCCA,0.543
4,GGCCGGCAUGGUCCCAGCCUCCUCGCUGGCGCCGGCUGGGCAAGAUUUCGAGGGGACCGUCCCCUCGGUAAUGGCGAAUGGGACCCA,0.517
5,GGCCGGCAUGGUCCCAGCCUCCUCGCUGGCGCCGGCUGGGCAAAAUUCCGAGGGGACCGUCCCCUCGGUAAUCGCGAAUGGGACCCA,0.696
6,GGCCGGCAUGGUCCCAGCCUCCUCGCUGGCGCCGGCUGGGCAAAAUUCCGAGGGGACCGUCCCCUCGGUAAUAGCGAAUGGGACCCA,0.577
7,GGCCGGCAUGGUCCCAGCCUCCUCGCUGGCGCCGGCUGGGCAAAAUUCCGAGGGGACCGUCCCCUCGGUAAUUGCGAAUGGGACCCA,0.397
8,GGCCGGCAUGGUCCCAGCCUCCUCGCUGGCGCCGGCUGGGCAAAAUUCCGAGGGGACCGUCCCCUCGGUAAAGGCGAAUGGGACCCA,0.733
9,GGCCGGCAUGGUCCCAGCCUCCUCGCUGGCGCCGGCUGGGCAAAAUUCCGAGGGGACCGUCCCCUCGGUAACGGCGAAUGGGACCCA,0.467
10,GGCCGGCAUGGUCCCAGCCUCCUCGCUGGCGCCGGCUGGGCAAAAUUCCGAGGGGACCGCCCCCUCGGUAAUGGCGAAUGGGACCCA,0.831
11,GGCCGGCAUGGUCCCAGCCUCCUCGCUGGCGCCGGCUGGGCAAGAUUCCGAGGGGACCGUCCCCUCGGUAAUGGCGAAUGGGACCCA,0.753
12,GGCCGGCAUGGUCCCAGCCUCCUCGCUGGCGCCGGCUGGGCAAAAUUCCGAGUGGACCGUCCCCUCGGUAAUGGCGAAUGGGACCCA,0.929
13,GGCCGGCAUGGUCCCAGCCUCCUCGCUGGCGCCGGCUGGGCAAAAUUCCGAGAGGACCGUCCCCUCGGUAAUGGCGAAUGGGACCCA,0.831
14,GGCCGGCAUGGUCCCAGCCUCCUCGCUGGCGCCGGCUGGGCAAAACUCCGAGGGGACCGUCCCCUCGGUAAUGGCGAAUGGGACCCA,0.767
15,GGCCGGCAUGGUCCCAGCCUCCUCGCUGGCGCCGGCUGGGCAAGAUUCCGAGGGGACCGUCCCCUCGGUACUGGCGAAUGGGACCCA,0.76
16,GGCCGGCAUGGUCCCAGCCUCCUCGCUGGCGCCGGCUGGGCAAGAUUCCGAGGGGACCGUCCCCUCGGUAAUGGCGAAUGGGACCCC,0.621

row,Variant,self-cleavage
1,GGCCGGCAUGGUCCCAGCCUCCUCGCUGGCGCCGGCUGGGCAAGAUUCCGAGGGGACCGUCCCCUCGGUAAUGGCGAAUGGGACCCG,0.641
2,GGCCGGCAUGGUCCCAGCCUCCUCGCUGGCGCCGGCUGGGCAAGAUUCCGCGGGGACCGUCCCCUCGGUAAUGGCGAAUGGGACCCA,0.447
3,GGCCGGCAUGGUCCCAGCCUCCUCGCUGGCGCCGGCUGGGCAAGAUUCCGUGGGGACCGUCCCCUCGGUAAUGGCGAAUGGGACCCA,0.591
4,GGCCGGCAUGGUCCCAGCCUCCUCGCUGGCGCCGGCUGGGCAAAAUUCCGAGGGGACCGUCCCCUCCGUAAUGGCGAAUGGGACCCA,0.712
5,GGCCGGCAUGGUCCCAGCCUCCUCGCUGGCGCCGGCUGGGCAAGAUUCCGAGGGGACCGUCCCCUCGGUAAUGGCGAAUGGGUCCCA,0.38
6,GGCCGGCAUGGUCCCAGCCUCCUCGCUGGCGCCGGCUGGGCAAGAUUCCGAGGGGACCGUCCCCUCGGUAAUGGCGAAUGGGCCCCA,0.284
7,GGCCGGCAUGGUCCCAGCCUCCUCGCUGGCGCCGGCUGGGCAAGAUUCCGAGGGGACCGUCGCCUCGGUAAUGGCGAAUGGGACCCA,0.485
8,GGCCGGCAUGGUCCCAGCCUCCUCGCUGGCGCCGGCUGGGCAAGAUUCCGAGGGGACCGUCUCCUCGGUAAUGGCGAAUGGGACCCA,0.758
9,GGCCGGCAUGGUCCCAGCCUCCUCGCUGGCGCCGGCUGGGCAAAAUUCCGAGGGGACCGUCCCCUCGGUAAUGGCGAAUGUGACCCA,0.203
10,GGCCGGCAUGGUCCCAGCCUCCUCGCUGGCGCCGGCUGGGCAAGAUUCAGAGGGGACCGUCCCCUCGGUAAUGGCGAAUGGGACCCA,0.665
11,GGCCGGCAUGGUCCCAGCCUCCUCGCUGGCGCCGGCUGGGCAAGAUUCUGAGGGGACCGUCCCCUCGGUAAUGGCGAAUGGGACCCA,0.617
12,GGCCGGCAUGGUCCCAGCCUCCUCGCUGGCGCCGGCUGGGCAAAAUUCCGAGGGGACCGUCCCCUCGGUAAUGGCGAAUGGGAGCCA,0.0519
13,GGCCGGCAUGGUCCCAGCCUCCUCGCUGGCGCCGGCUGGGCAAGAUUCCGAGGGGACCGUCCCCUCGGUAAUGGCGGAUGGGACCCA,0.665
14,GGCCGGCAUGGUCCCAGCCUCCUCGCUGGCGCCGGCUGGGCAAGAUUCCGAGGGGACCGUCCCCUCGGUAAUGGCGCAUGGGACCCA,0.297
15,GGCCGGCAUGGUCCCAGCCUCCUCGCUGGCGCCGGCUGGGCAAAAUUCCGAUGGGACCGUCCCCUCGGUAAUGGCGAAUGGGACCCA,0.913
16,GGCCGGCAUGGUCCCAGCCUCCUCGCUGGCGCCGGCUGGGCAAAAUUCCGAAGGGACCGUCCCCUCGGUAAUGGCGAAUGGGACCCA,0.776
